Source: the supplement of paper PMC10567573

B1: PHTF1 (parent)
chain: RVKLISNKGTETDNDPSCVHPIIK

Variants of: B1
Experiment: protein stability index of a GFP-peptide fusion (GPS, HEK-293T) (PSI 1-6); higher = more stable
Settings: c terminus: a fixed tail appended
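Further: lentivirally expressed fusions sorted by FACS into six bins by GFP to DsRed ratio, PSI derived from sequencing read proportions per bin multiplied by bin number.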

Going from RVKLISNKGTETDFDPSCVHPIIK to RVKLISNKGTETDWDPSCVHPIIK, the protein stability index falls from 3.06 to 2.65.

First: RVKLISNKGTETDSDPSCVHPIIK
Second: RVKLISNKGTETDADPSCVHPIIK
The protein stability index of the first is higher: 4.56 for the first, 4.25 for the second.

Compared with RVKLISNKGTETDEDPSCVHPIIK, RVKLISNKGTETDDDPSCVHPIIK is lower in protein stability index: 4.53 for the first, 4.04 for the second.

Compared with RVKLISNKGTETDRDPSCVHPIIK, RVKLISNKGTETDCDPSCVHPIIK is higher in protein stability index: 3.71 for the first, 3.72 for the second.

Going from RVKLISNKGTETDLDPSCVHPIIK to RVKLISNKGTETDKDPSCVHPIIK, the protein stability index rises from 3.48 to 3.65.

Compared with RVKLISNKGTETDQDPSCVHPIIK, RVKLISNKGTETDMDPSCVHPIIK is lower in protein stability index: 4.29 for the first, 3.6 for the second.

Going from RVKLISNKGTETDIDPSCVHPIIK to RVKLISNKGTETDVDPSCVHPIIK, the protein stability index rises from 3.06 to 4.26.

Going from RVKLISNKGTETDYDPSCVHPIIK to RVKLISNKGTETDTDPSCVHPIIK, the protein stability index rises from 3.73 to 4.16.

Going from RVKLISNKGTETDHDPSCVHPIIK to RVKLISNKGTETDGDPSCVHPIIK, the protein stability index rises from 3.82 to 3.83.

Compared with RVKLISNKCTETDNDPSCVHPIIK, RVKLISNKETETDNDPSCVHPIIK is higher in protein stability index: 3.56 for the first, 4.23 for the second.

Compared with RVKLISNKPTETDNDPSCVHPIIK, RVKLISNKFTETDNDPSCVHPIIK is lower in protein stability index: 3.95 for the first, 3.19 for the second.

Compared with RVKLISNKATETDNDPSCVHPIIK, RVKLISNKHTETDNDPSCVHPIIK is lower in protein stability index: 4.12 for the first, 4.03 for the second.

Going from RVKLISNKRTETDNDPSCVHPIIK to RVKLISNKSTETDNDPSCVHPIIK, the protein stability index rises from 3.54 to 4.21.

Going from RVKLISNKVTETDNDPSCVHPIIK to RVKLISNKQTETDNDPSCVHPIIK, the protein stability index rises from 4.18 to 4.31.

Compared with RVKLISNKNTETDNDPSCVHPIIK, RVKLISNKITETDNDPSCVHPIIK is lower in protein stability index: 4.17 for the first, 3.25 for the second.

First: RVKLISNKLTETDNDPSCVHPIIK
Second: RVKLISNKYTETDNDPSCVHPIIK
The protein stability index of the first is higher: 3.64 for the first, 3.44 for the second.

First: RVKLISNKKTETDNDPSCVHPIIK
Second: RVKLISNKWTETDNDPSCVHPIIK
The protein stability index of the first is higher: 3.98 for the first, 2.8 for the second.

Compared with RVKLISNKMTETDNDPSCVHPIIK, RVKLISNKTTETDNDPSCVHPIIK is higher in protein stability index: 3.75 for the first, 4.27 for the second.

First: RVKLISNKDTETDNDPSCVHPIIK
Second: RVKLISNKGTQTDNDPSCVHPIIK
The protein stability index of the first is higher: 4.36 for the first, 3.57 for the second.

Compared with RVKLISNKGTATDNDPSCVHPIIK, RVKLISNKGTGTDNDPSCVHPIIK is lower in protein stability index: 4.04 for the first, 3.57 for the second.

Compared with RVKLISNKGTFTDNDPSCVHPIIK, RVKLISNKGTPTDNDPSCVHPIIK is higher in protein stability index: 2.71 for the first, 3.95 for the second.

Going from RVKLISNKGTCTDNDPSCVHPIIK to RVKLISNKGTDTDNDPSCVHPIIK, the protein stability index rises from 3.69 to 4.05.

Going from RVKLISNKGTTTDNDPSCVHPIIK to RVKLISNKGTLTDNDPSCVHPIIK, the protein stability index falls from 3.82 to 3.41.

First: RVKLISNKGTRTDNDPSCVHPIIK
Second: RVKLISNKGTITDNDPSCVHPIIK
The protein stability index of the first is higher: 3.45 for the first, 3.24 for the second.

First: RVKLISNKGTHTDNDPSCVHPIIK
Second: RVKLISNKGTKTDNDPSCVHPIIK
The protein stability index of the first is lower: 3.41 for the first, 3.7 for the second.

Going from RVKLISNKGTYTDNDPSCVHPIIK to RVKLISNKGTWTDNDPSCVHPIIK, the protein stability index falls from 3 to 2.43.

Compared with RVKLISNKGTNTDNDPSCVHPIIK, RVKLISNKGTMTDNDPSCVHPIIK is lower in protein stability index: 4.04 for the first, 3.13 for the second.

Going from RVKLISNKGTVTDNDPSCVHPIIK to RVKLISNKGTSTDNDPSCVHPIIK, the protein stability index rises from 3.16 to 3.55.

First: RVKLISNIGTETDNDPSCVHPIIK
Second: RVKLISNFGTETDNDPSCVHPIIK
The protein stability index of the first is higher: 3.78 for the first, 3.56 for the second.

Compared with RVKLISNAGTETDNDPSCVHPIIK, RVKLISNCGTETDNDPSCVHPIIK is lower in protein stability index: 4.1 for the first, 3.04 for the second.

First: RVKLISNTGTETDNDPSCVHPIIK
Second: RVKLISNLGTETDNDPSCVHPIIK
The protein stability index of the first is higher: 4.33 for the first, 3.33 for the second.

Going from RVKLISNRGTETDNDPSCVHPIIK to RVKLISNDGTETDNDPSCVHPIIK, the protein stability index rises from 3.95 to 4.45.

Going from RVKLISNNGTETDNDPSCVHPIIK to RVKLISNPGTETDNDPSCVHPIIK, the protein stability index falls from 3.96 to 3.64.

Going from RVKLISNVGTETDNDPSCVHPIIK to RVKLISNMGTETDNDPSCVHPIIK, the protein stability index falls from 3.88 to 3.15.

First: RVKLISNYGTETDNDPSCVHPIIK
Second: RVKLISNWGTETDNDPSCVHPIIK
The protein stability index of the first is higher: 3.22 for the first, 2.89 for the second.

Compared with RVKLISNHGTETDNDPSCVHPIIK, RVKLISNSGTETDNDPSCVHPIIK is higher in protein stability index: 3.94 for the first, 4.21 for the second.

Compared with RVKLISNQGTETDNDPSCVHPIIK, RVKLISNEGTETDNDPSCVHPIIK is lower in protein stability index: 4.7 for the first, 4.42 for the second.

Going from RVKLISNGGTETDNDPSCVHPIIK to RVKLISNKGTETDNDQSCVHPIIK, the protein stability index falls from 4.62 to 4.03.

Going from RVKLISNKGTETDNDHSCVHPIIK to RVKLISNKGTETDNDESCVHPIIK, the protein stability index rises from 3.88 to 4.18.

First: RVKLISNKGTETDNDWSCVHPIIK
Second: RVKLISNKGTETDNDLSCVHPIIK
The protein stability index of the first is lower: 2.37 for the first, 3.38 for the second.

Going from RVKLISNKGTETDNDMSCVHPIIK to RVKLISNKGTETDNDNSCVHPIIK, the protein stability index falls from 3.96 to 3.68.

First: RVKLISNKGTETDNDGSCVHPIIK
Second: RVKLISNKGTETDNDVSCVHPIIK
The protein stability index of the first is higher: 4.55 for the first, 3.97 for the second.

Compared with RVKLISNKGTETDNDTSCVHPIIK, RVKLISNKGTETDNDSSCVHPIIK is higher in protein stability index: 3.94 for the first, 4.4 for the second.

Going from RVKLISNKGTETDNDKSCVHPIIK to RVKLISNKGTETDNDCSCVHPIIK, the protein stability index falls from 4.06 to 3.82.

First: RVKLISNKGTETDNDISCVHPIIK
Second: RVKLISNKGTETDNDYSCVHPIIK
The protein stability index of the first is higher: 3.67 for the first, 3.13 for the second.

Going from RVKLISNKGTETDNDDSCVHPIIK to RVKLISNKGTETDNDFSCVHPIIK, the protein stability index falls from 4.13 to 3.48.

Compared with RVKLISNKGTETDNDASCVHPIIK, RVKLISNKGTETDNDRSCVHPIIK is lower in protein stability index: 3.98 for the first, 3.96 for the second.
